# Source: patent US9266940 (Novo Nordisk, dated 2016)
# Numbered stars: 1 amine (or outer) side, 2 acyl side, 3 side chain; on linkers, the order of the positions; unused ones are H or OH. Square brackets hold non-standard residues; d marks the D form. Side chains are listed from the residue outwards. Ends that are not written are not given here. * marks the point of attachment. Dodecanoyl(12-OPh(4-COOH)) = O=C(O)c1ccc(OCCCCCCCCCCCC(=O)*)cc1; Decanoyl(10-(4-HOOC-PhO)) = O=C(O)c1ccc(OCCCCCCCCCC(=O)*)cc1; γGlu = O=C(O)[C@H](CCC(=O)[*:2])N[*:1]; C14 diacid = O=C(O)CCCCCCCCCCCCC(=O)*; AEEA = NCCOCCOCC(=O)O; Aib = CC(C)(N)C(=O)O
# B1: N^ε22-[2-[2-[2-[[2-[2-[2-[[(4S)-4-carboxy-4-(13-carboxytridecanoylamino)butanoyl]amino]ethoxy]ethoxy]acetyl]amino]ethoxy]ethoxy]acetyl], … (peptide)
# peptide: H[Aib]EGTFTSDVSSYLEK([AEEA-AEEA-γGlu-C14 diacid])QAVRK([AEEA-AEEA-γGlu-C14 diacid])FIAHLVRGRG
# B2: N^ε27-[2-[2-[2-[[2-[2-[2-[[(4S)-4-carboxy-4-(13-carboxytridecanoylamino)butanoyl]amino]ethoxy]ethoxy]acetyl]amino]ethoxy]ethoxy]acetyl], … (peptide)
# peptide: H[Aib]EGTFTSDVSSYLEGQAVRK([AEEA-AEEA-γGlu-C14 diacid])FIAHLVQGRK([AEEA-AEEA-γGlu-C14 diacid])
# notes: also called 15
# B3: N^ε12-[2-[2-[2-[[2-[2-[2-[[(4S)-4-carboxy-4-(13-carboxytridecanoylamino)butanoyl]amino]ethoxy]ethoxy]acetyl]amino]ethoxy]ethoxy]acetyl], … (peptide)
# peptide: H[Aib]EGTK([AEEA-AEEA-γGlu-C14 diacid])TSDVSSYLEEQAARK([AEEA-AEEA-γGlu-C14 diacid])FIAHLVQGRG
# notes: also called 18
# B4: N^ε22-[2-[2-[2-[[2-[2-[2-[[(4S)-4-carboxy-4-(13-carboxytridecanoylamino)butanoyl]amino]ethoxy]ethoxy]acetyl]amino]ethoxy]ethoxy]acetyl], … (peptide)
# peptide: H[Aib]EGTFTSDVSSYLEK([AEEA-AEEA-γGlu-C14 diacid])QAARK([AEEA-AEEA-γGlu-C14 diacid])FIAHLVG
# notes: also called 19
# B5: N^ε27-[2-[2-[2-[[2-[2-[2-[[(4S)-4-carboxy-4-[10-(4-carboxyphenoxy)decanoylamino]butanoyl]amino]ethoxy]ethoxy]acetyl]amino]ethoxy]ethoxy]acetyl], … (peptide)
# peptide: HAEGTFTSDVSSYLEEQAARK([AEEA-AEEA-γGlu-Decanoyl(10-(4-HOOC-PhO))])FIEWLVRGK([AEEA-AEEA-γGlu-Decanoyl(10-(4-HOOC-PhO))])GEG
# B6: N^ε24-[2-[2-[2-[[2-[2-[2-[[(4S)-4-carboxy-4-[10-(4-carboxyphenoxy)decanoylamino]butanoyl]amino]ethoxy]ethoxy]acetyl]amino]ethoxy]ethoxy]acetyl], … (peptide)
# peptide: HAEGTFTSDVSSYLEEQK([AEEA-AEEA-γGlu-Decanoyl(10-(4-HOOC-PhO))])ARK([AEEA-AEEA-γGlu-Decanoyl(10-(4-HOOC-PhO))])FIAHLVG
# notes: also called 25
# B7: N^ε27-[2-[2-[2-[[2-[2-[2-[[(4S)-4-carboxy-4-[10-(4-carboxyphenoxy)decanoylamino]butanoyl]amino]ethoxy]ethoxy]acetyl]amino]ethoxy]ethoxy]acetyl], … (peptide)
# peptide: HAEGTFTSDVSSYLEEQAARK([AEEA-AEEA-γGlu-Decanoyl(10-(4-HOOC-PhO))])FIAWLVRGK([AEEA-AEEA-γGlu-Decanoyl(10-(4-HOOC-PhO))])
# modifications: ends and bridges not checked
# B8: N^ε27-[2-[2-[2-[[2-[2-[2-[[(4S)-4-carboxy-4-[10-(4-carboxyphenoxy)decanoylamino]butanoyl]amino]ethoxy]ethoxy]acetyl]amino]ethoxy]ethoxy]acetyl], … (peptide)
# peptide: H[Aib]EGTFTSDVSSYLEEQAARK([AEEA-AEEA-γGlu-Decanoyl(10-(4-HOOC-PhO))])FIEWLVRGK([AEEA-AEEA-γGlu-Decanoyl(10-(4-HOOC-PhO))])GEG
# notes: also called 31
# B9: N^ε27-[2-[2-[2-[[2-[2-[2-[[(4S)-4-carboxy-4-[12-(4-carboxyphenoxy)dodecanoylamino]butanoyl]amino]ethoxy]ethoxy]acetyl]amino]ethoxy]ethoxy]acetyl], … (peptide)
# peptide: HAEGTFTSDVSSYLEEQAARK([AEEA-AEEA-γGlu-Dodecanoyl(12-OPh(4-COOH))])FIEWLVRGK([AEEA-AEEA-γGlu-Dodecanoyl(12-OPh(4-COOH))])GEG
# notes: also called 32
# B10: N^ε20-[2-[2-[2-[[2-[2-[2-[[(4S)-4-carboxy-4-[10-(4-carboxyphenoxy)decanoylamino]butanoyl]amino]ethoxy]ethoxy]acetyl]amino]ethoxy]ethoxy]acetyl], … (peptide)
# peptide: H[Aib]EGTFTSDVSSYK([AEEA-AEEA-γGlu-Decanoyl(10-(4-HOOC-PhO))])EEQAARK([AEEA-AEEA-γGlu-Decanoyl(10-(4-HOOC-PhO))])FIEWLVG
# B11: N^ε22-[2-[2-[2-[[2-[2-[2-[[(4S)-4-carboxy-4-(13-carboxytridecanoylamino)butanoyl]amino]ethoxy]ethoxy]acetyl]amino]ethoxy]ethoxy]acetyl], … (peptide)
# peptide: H[Aib]EGTFTSDVSSYLEK([AEEA-AEEA-γGlu-C14 diacid])QAVRK([AEEA-AEEA-γGlu-C14 diacid])FIAWLVR
# B12: N^ε22-[2-[2-[2-[[2-[2-[2-[[(4S)-4-carboxy-4-(13-carboxytridecanoylamino)butanoyl]amino]ethoxy]ethoxy]acetyl]amino]ethoxy]ethoxy]acetyl]N^ε27-[2-[2-[2-[[2-[2-[2- … (peptide)
# peptide: H[Aib]EGTFTSDVSSYLEK([AEEA-AEEA-γGlu-C14 diacid])QAVRK([AEEA-AEEA-γGlu-C14 diacid])FIAWLVRG
# Columns and labels:
# human GLP-1 receptor [1] = target: T1, human GLP-1 receptor (human, UniProt P43220 24-463); test: cell-based or functional assay
# human GLP-1 receptor [2] = target: T1, human GLP-1 receptor; test: SPA displacement assay; IC50 at 2.0% HSA over IC50 at 0.001% HSA
# Protocol: (§1) A shift in the binding affinity, $IC50$, is an indication that the peptide in question binds to albumin, and thereby a prediction of a potential protracted pharmacokinetic profile of the peptide in question in animal models.
# (§2) 50 ul (micro liter) HSA ("high albumin" experiment containing 2% HSA), or buffer ("low albumin" experiment containing 0.001% HSA), was added to Optiplate, and 25 ul of test compounds were added. 5-10 ug membrane protein/sample was added (50 ul) corresponding to 0.1-0.2 mg protein/ml (to be preferably optimised for each membrane preparation). SPA-particles (Wheatgerm agglutinin SPA beads, Perkin Elmer, #RPNQ0001) were added in an amount of 0.5 mg/well (50 ul). […] The plates were sealed with PlateSealer and incubated for 120 minutes at 30° C. while shaking. The plates were centrifuged (1500 rpm, 10 min) and counted in Topcounter.
# human GLP-1 receptor [3] = target: T1, human GLP-1 receptor; test: SPA, displacement of 125I-GLP-1(7-36)NH2 from hGLP-1R BHK membranes, high HSA (2.0%)
# Protocol: as §1, §2
# human GLP-1 receptor [4] = target: T1, human GLP-1 receptor; test: SPA, displacement of 125I-GLP-1(7-36)NH2 from hGLP-1R BHK membranes, low HSA (0.001%)
# Protocol: as §1, §2
binder,measurement,setting,value
B1,"EC50/pM (in vitro potency, cAMP formation, AlphaScreen)",human GLP-1 receptor [1],9 pM
same,Ratio [(IC50/nM) high HSA]/[(IC50/nM) low HSA],human GLP-1 receptor [2],174
same,IC50,human GLP-1 receptor [3],21 nM
same,IC50,human GLP-1 receptor [4],0.12 nM
B2,"EC50/pM (in vitro potency, cAMP formation, AlphaScreen)",human GLP-1 receptor [1],5 pM
same,Ratio [(IC50/nM) high HSA]/[(IC50/nM) low HSA],human GLP-1 receptor [2],155
same,IC50,human GLP-1 receptor [3],29 nM
same,IC50,human GLP-1 receptor [4],0.19 nM
B3,"EC50/pM (in vitro potency, cAMP formation, AlphaScreen)",human GLP-1 receptor [1],3020 pM
same,Ratio [(IC50/nM) high HSA]/[(IC50/nM) low HSA],human GLP-1 receptor [2],2.1
same,IC50,human GLP-1 receptor [3],789 nM
same,IC50,human GLP-1 receptor [4],373 nM
B4,"EC50/pM (in vitro potency, cAMP formation, AlphaScreen)",human GLP-1 receptor [1],52 pM
same,Ratio [(IC50/nM) high HSA]/[(IC50/nM) low HSA],human GLP-1 receptor [2],60
same,IC50,human GLP-1 receptor [3],143 nM
same,IC50,human GLP-1 receptor [4],2.38 nM
B5,"EC50/pM (in vitro potency, cAMP formation, AlphaScreen)",human GLP-1 receptor [1],43 pM
same,Ratio [(IC50/nM) high HSA]/[(IC50/nM) low HSA],human GLP-1 receptor [2],821
same,IC50,human GLP-1 receptor [3],320 nM
same,IC50,human GLP-1 receptor [4],0.39 nM
B6,"EC50/pM (in vitro potency, cAMP formation, AlphaScreen)",human GLP-1 receptor [1],380 pM
same,Ratio [(IC50/nM) high HSA]/[(IC50/nM) low HSA],human GLP-1 receptor [2],3.5
same,IC50,human GLP-1 receptor [3],39 nM
same,IC50,human GLP-1 receptor [4],10.9 nM
B7,"EC50/pM (in vitro potency, cAMP formation, AlphaScreen)",human GLP-1 receptor [1],62 pM
same,Ratio [(IC50/nM) high HSA]/[(IC50/nM) low HSA],human GLP-1 receptor [2],101
same,IC50,human GLP-1 receptor [3],29 nM
same,IC50,human GLP-1 receptor [4],0.29 nM
B8,"EC50/pM (in vitro potency, cAMP formation, AlphaScreen)",human GLP-1 receptor [1],37 pM
same,Ratio [(IC50/nM) high HSA]/[(IC50/nM) low HSA],human GLP-1 receptor [2],629
same,IC50,human GLP-1 receptor [3],220 nM
same,IC50,human GLP-1 receptor [4],0.35 nM
B9,"EC50/pM (in vitro potency, cAMP formation, AlphaScreen)",human GLP-1 receptor [1],76 pM
same,Ratio [(IC50/nM) high HSA]/[(IC50/nM) low HSA],human GLP-1 receptor [2],2050
same,IC50,human GLP-1 receptor [3],369 nM
same,IC50,human GLP-1 receptor [4],0.18 nM
B10,"EC50/pM (in vitro potency, cAMP formation, AlphaScreen)",human GLP-1 receptor [1],468 pM
same,Ratio [(IC50/nM) high HSA]/[(IC50/nM) low HSA],human GLP-1 receptor [2],79
same,IC50,human GLP-1 receptor [3],446 nM
same,IC50,human GLP-1 receptor [4],5.68 nM
B11,"EC50/pM (in vitro potency, cAMP formation, AlphaScreen)",human GLP-1 receptor [1],159 pM
same,Ratio [(IC50/nM) high HSA]/[(IC50/nM) low HSA],human GLP-1 receptor [2],57
same,IC50,human GLP-1 receptor [3],80 nM
same,IC50,human GLP-1 receptor [4],1.41 nM
B12,"EC50/pM (in vitro potency, cAMP formation, AlphaScreen)",human GLP-1 receptor [1],242 pM
same,Ratio [(IC50/nM) high HSA]/[(IC50/nM) low HSA],human GLP-1 receptor [2],157
same,IC50,human GLP-1 receptor [3],60 nM
same,IC50,human GLP-1 receptor [4],0.38 nM
